Laboratory results published in patent publication US20220088215A1.

Target: Asialoglycoprotein receptor 1 (ASGR1) on the surface of HEPG2 cells (human) (UniProt P07306)
Experiment: cell-based or functional assay

UniProt P07306, sequence (P07306 whole entry): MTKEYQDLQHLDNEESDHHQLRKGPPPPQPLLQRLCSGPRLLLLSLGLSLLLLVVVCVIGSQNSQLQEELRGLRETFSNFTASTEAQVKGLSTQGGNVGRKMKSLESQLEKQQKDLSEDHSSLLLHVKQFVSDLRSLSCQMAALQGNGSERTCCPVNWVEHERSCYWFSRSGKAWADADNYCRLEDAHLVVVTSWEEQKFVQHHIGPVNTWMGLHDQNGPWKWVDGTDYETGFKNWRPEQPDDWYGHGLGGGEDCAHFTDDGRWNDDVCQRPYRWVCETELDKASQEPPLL

improvement of mmu-miR-298-5p uptake efficiency into HEPG2 cells, against unmodified EVs: 60%
relative quantification of mmu-miR-298-5p in Hep-G2 cells (qRT-PCR, relative ratio to control cells) (relative ratio): 2000
relative quantification of mmu-miR-298-5p in Hep-G2 cells, against DharmaFECT transfection: 8 fold
Substance: Anti-Asialoglycoprotein Receptor 1/HL-1 antibody (abCAM, Product Number ab49355)
